In patent US20040254364A1:

Key:
[1] = target: Manduca sexta brush border membrane vesicles (BBMV); test: 125I-labelled phage added to 10 µg of BBMV, no competitor
[2] = target: Manduca sexta brush border membrane vesicles (BBMV); test: micropanning on 100 µg of BBMV; control sample, set to 1.0 by definition
[3] = target: Bovine serum albumin (bovine) (UniProt P02769); test: micropanning in microtiter wells; control sample, set to 1.0 by definition
[4] = target: Manduca sexta brush border membrane vesicles (BBMV); test: 125I-labelled phage added to 10 µg of BBMV, no competitor, 105,252 cpm added
[5] = target: Manduca sexta brush border membrane vesicles (BBMV); test: 125I-labelled phage added to 10 µg of BBMV with 100-fold excess of unlabeled Cry1Ac
[6] = target: Manduca sexta brush border membrane vesicles (BBMV); test: 125I-labelled phage on 10 µg of BBMV, competitor 100-fold excess of unlabeled Cry1Ac
[7] = target: Manduca sexta brush border membrane vesicles (BBMV); test: 125I-labelled phage added to 10 µg of BBMV with 100-fold excess of unlabeled Cry1Ac, 105,252 cpm added
[8] = target: Manduca sexta brush border membrane vesicles (BBMV); test: micropanning on 100 µg of BBMV with an excess of free Cry1Ac as competitor, yield relative to BBMV without competitor
[9] = target: Manduca sexta brush border membrane vesicles (BBMV); test: 125I-labelled control phage added to 10 µg of BBMV, no competitor
[10] = target: Manduca sexta brush border membrane vesicles (BBMV); test: 125I-labelled control phage added to 10 µg of BBMV, no competitor, 62,319 cpm added
[11] = target: Manduca sexta brush border membrane vesicles (BBMV); test: 125I-labelled control phage added to 10 µg of BBMV with 100-fold excess of unlabeled Cry1Ac
[12] = target: Manduca sexta brush border membrane vesicles (BBMV); test: 125I-labelled control phage added to 10 µg of BBMV with 100-fold excess of unlabeled Cry1Ac, 62,319 cpm added
[13] = target: Manduca sexta brush border membrane vesicles (BBMV); test: 125I-labelled toxin added to 10 µg of BBMV, no competitor
[14] = target: Manduca sexta brush border membrane vesicles (BBMV); test: 125I-labelled toxin added to 10 µg of BBMV, no competitor, 98,242 cpm added
[15] = target: Manduca sexta brush border membrane vesicles (BBMV); test: 125I-labelled toxin added to 10 µg of BBMV with 100-fold excess of unlabeled Cry1Ac
[16] = target: Manduca sexta brush border membrane vesicles (BBMV); test: 125I-labelled toxin on 10 µg of BBMV, competitor 100-fold excess of unlabeled Cry1Ac
[17] = target: Manduca sexta brush border membrane vesicles (BBMV); test: 125I-labelled toxin added to 10 µg of BBMV with 100-fold excess of unlabeled Cry1Ac, 98,242 cpm added

Bovine serum albumin (bovine), sequence (P02769 25-607 limits assumed): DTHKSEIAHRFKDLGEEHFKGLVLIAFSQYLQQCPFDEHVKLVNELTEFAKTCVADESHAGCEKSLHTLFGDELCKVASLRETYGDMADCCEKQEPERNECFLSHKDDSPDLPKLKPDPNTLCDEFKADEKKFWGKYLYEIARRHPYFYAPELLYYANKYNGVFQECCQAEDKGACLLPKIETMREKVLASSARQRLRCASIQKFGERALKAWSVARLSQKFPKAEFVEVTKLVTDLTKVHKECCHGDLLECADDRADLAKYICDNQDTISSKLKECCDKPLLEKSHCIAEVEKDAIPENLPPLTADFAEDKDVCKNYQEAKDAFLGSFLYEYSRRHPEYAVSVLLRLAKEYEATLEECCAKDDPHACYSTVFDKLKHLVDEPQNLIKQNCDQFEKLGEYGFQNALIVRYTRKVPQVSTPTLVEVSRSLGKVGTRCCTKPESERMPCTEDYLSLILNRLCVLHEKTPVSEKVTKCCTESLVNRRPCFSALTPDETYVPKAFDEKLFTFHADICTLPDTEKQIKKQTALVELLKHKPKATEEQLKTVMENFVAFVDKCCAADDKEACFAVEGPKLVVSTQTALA

Question: Which % cpm bound [1] does the source give for “1Ac-fUSE5 phage (filamentous fd phage displaying the Cry1Ac-cpIII fusion protein) (from UniProt P05068 1-611; P03661 48-424)” here?
Answer: 11.7%

Question: What about the relative yield (relative to control sample) [2] of the same substance?
Answer: 1

Question: And the relative yield (relative to control sample) [3]?
Answer: 1

Question: And the mean cpm bound (n = 2) [4]?
Answer: 12300 cpm

Question: What about the % cpm bound [5] of the same substance?
Answer: 10.7%

Question: And the % competition [6]?
Answer: 8.5%

Question: And the mean cpm bound (n = 2) [7]?
Answer: 11200 cpm

Question: And the relative yield (relative to control sample) [8]?
Answer: 1.7

Question: “WT-fUSE5 phage (fUSE5 vector phage without insert, grown in JM109) (from UniProt P03661 19-424)” was tested. Which % cpm bound [9] did it give?
Answer: 6.1%

Question: And the relative yield (relative to control sample) [2]?
Answer: 1

Question: What about the relative yield (relative to control sample) [3] of the same substance?
Answer: 1

Question: And the mean cpm bound (n = 2) [10]?
Answer: 3780 cpm

Question: What about the % cpm bound [11] of the same substance?
Answer: 7.6%

Question: And the mean cpm bound (n = 2) [12]?
Answer: 4740 cpm

Question: What about the relative yield (relative to control sample) [8] of the same substance?
Answer: 0.24

Question: How did the % cpm bound [13] turn out when “purified, trypsin-activated HD-73 Cry1Ac toxin (65 kDa) from Bacillus thuringiensis subsp. kurstaki (from UniProt P05068 29-623)” was run?
Answer: 12.9%

Question: What about the mean cpm bound (n = 2) [14] of the same substance?
Answer: 12700 cpm

Question: What about the % cpm bound [15] of the same substance?
Answer: 4.3%

Question: And the % competition [16]?
Answer: 66.5%

Question: And the mean cpm bound (n = 2) [17]?
Answer: 4260 cpm
